The record followed here is patent US5688488A, “Composition and method for tumor imaging” (priority 1995, dated 1997).

Where two headings read alike, the source gives them in different places.

One series has as its system KB cells. The experiment in a line: Uptake of ^67 Ga-DF-folate complex by cultured KB cells. The format is cell-based, human. As to the method:
Cell Culture. KB cells, a human nasopharyngeal epidermal carcinoma cell line that greatly overexpresses the folate binding protein, were cultured continuously as a monolayer at 37° C. in a humidified atmosphere containing 5% CO2 in folate-deficient modified Eagle's medium (FDMEM) (a folate-free modified Eagle's medium supplemented with 10% (v/v) heat-inactivated fetal calf serum as the only source of folate) containing penicillin (50 units/mL), streptomycin (50 μg/mL), and 2 mM L-glutamine. The final folate concentration in the complete FDMEM is the physiological range (~2 nM). 48 h prior to each experiment, the cells were transferred to 35 mm culture dishes at 5×10^5 cells per dish and grown to ~80% confluent.
Because folate and its conjugates bind to cell surface receptors at 4° C., but are capable of endocytosis only at higher temperatures, it is possible to separately evaluate the kinetics of binding the internalization of folate by measuring the rates of folate conjugate uptake at the two temperatures. […] By the end of the 30 min incubation, binding approached to saturation with ~18% of the initial radioactivity found associated with a cell surface.
Incubation at 37° C., a temperature which permits both binding and endocytosis, yielded similar kinetic results, however, maximal uptake reached 32% of the total conjugate added. Presumably, the difference in magnitude of the two cellular uptake curves reflects the ability of the folate receptor to internalize the conjugate and then recycle to the cell surface in its unoccupied form. […] This latter result is consistent with the inability of the α-conjugate to compete with free folate for the cell surface receptor.
To verify the involvement of a cell surface folate receptor in mediating the uptake of ^67 Ga-DF-folate(γ), binding and internalization of the complex were evaluated as a function of the complex's concentration. Cellular uptake of ^67 Ga-DF-folate(γ) was concentration dependent at both 4° C. and 37° C., saturating at levels of 20% and 35% of the total radioactivity added, respectively.

Series [1] has as its system Subcutaneous KB Cell Tumors. Particulars: mouse, in vivo, iv; for Tumor-to-Non-target Ratio: Tumor/blood / Tumor-to-Non-target Ratio: Tumor/kidney / Tumor-to-Non-target Ratio: Tumor/liver / Tumor-to-Non-target Ratio: Tumor/muscle: 240 min; for Percentage of Injected Dose per Gram of Tissue: Blood / Percentage of Injected Dose per Gram of Tissue: Heart / Percentage of Injected Dose per Gram of Tissue: Kidney / Percentage of Injected Dose per Gram of Tissue: Liver / Percentage of Injected Dose per Gram of Tissue: Lungs / Percentage of Injected Dose per Gram of Tissue: Muscle / Percentage of Injected Dose per Gram of Tissue: Tumor: 4 h.

Series [2] concerns KB Tumors. Conditions: mouse, in vivo, iv.
For series [3], the system named is KB Tumors. Nature of the series: Biodistribution of ^125 I-RNase-Folate conjugate and ^125 I-RNase control following I.V. administration to athymic mice with KB tumors. Conditions: folate-free diet.
Series [4] can be described thus: In vivo delivery to mice of ^125 I soybean trypsin inhibitor. Conditions: 15 minutes after tail vein injection, perfused. As to the method: Mice (25 g) were then injected with either the biotinylated SBTI or the control SBTI by insertion of a hypodermic syringe containing a 25 gauge needle into the tail vein of the mouse. After 15 minutes, each mouse was sacrificed and then perfused with heparin-containing isotonic saline via the direct cardiac influx and efflux method.

In the case of `CC(=O)N([O-])CCCCCNC(=O)CCC(=O)N([O-])CCCCCNC(=O)CCC(=O)N([O-])CCCCCN.[67Ga+3]` [^67 Ga-DF, reference compound], in the series on KB cells (controls), the “uptake by the KB cells” value was “did not show any significant uptake”. In addition, in series [1], the “Tumor-to-Non-target Ratio: Tumor/blood” value is on record as 3.9 ± 1.2, the “Tumor-to-Non-target Ratio: Tumor/kidney” value is recorded as 0.08 ± 0.01, the “Tumor-to-Non-target Ratio: Tumor/liver” value is 1.16 ± 0.10 and the “Tumor-to-Non-target Ratio: Tumor/muscle” value is 2.56 ± 0.15. Moreover, in series [1], the “Percentage of Injected Dose per Gram of Tissue: Blood” value is 0.026 ± 0.009 % of injected dose per gram, the “Percentage of Injected Dose per Gram of Tissue: Heart” value was 0.021 ± 0.002 % of injected dose per gram, the “Percentage of Injected Dose per Gram of Tissue: Kidney” value is reported as 1.26 ± 0.19 % of injected dose per gram and the “Percentage of Injected Dose per Gram of Tissue: Liver” value is on record as 0.082 ± 0.010 % of injected dose per gram. In series [1], the “Percentage of Injected Dose per Gram of Tissue: Lungs” value is reported as 0.054 ± 0.010 % of injected dose per gram, the “Percentage of Injected Dose per Gram of Tissue: Muscle” value is reported as 0.037 ± 0.001 % of injected dose per gram and the “Percentage of Injected Dose per Gram of Tissue: Tumor” value is 0.094 ± 0.004 % of injected dose per gram.

As for `O=C([O-])CC(O)(CC(=O)[O-])C(=O)[O-].[67Ga+3]` [^67 Ga-citrate, reference compound], in the series on KB cells (37° C., 30 min), the “cell-associated ^67 Ga radioactivity, fold lower than ^67 Ga-DF-folate(γ)” value was determined as 106 fold. In series [1], the “Tumor-to-Non-target Ratio: Tumor/blood” value was determined as 0.84 ± 0.19, the “Tumor-to-Non-target Ratio: Tumor/kidney” value turned out to be 2.4 ± 0.3, the “Tumor-to-Non-target Ratio: Tumor/liver” value amounted to 2.3 ± 0.2 and the “Tumor-to-Non-target Ratio: Tumor/muscle” value turned out to be 5.4 ± 0.7. In series [1], the “Percentage of Injected Dose per Gram of Tissue: Blood” value is recorded as 13.5 ± 3.2 % of injected dose per gram, the “Percentage of Injected Dose per Gram of Tissue: Heart” value is reported as 3.4 ± 0.2 % of injected dose per gram, the “Percentage of Injected Dose per Gram of Tissue: Kidney” value is given as 4.6 ± 0.4 % of injected dose per gram and the “Percentage of Injected Dose per Gram of Tissue: Liver” value is 4.7 ± 0.3 % of injected dose per gram. Besides, in series [1], the “Percentage of Injected Dose per Gram of Tissue: Lungs” value was 9.1 ± 2.7 % of injected dose per gram, the “Percentage of Injected Dose per Gram of Tissue: Muscle” value is 2.04 ± 0.29 % of injected dose per gram and the “Percentage of Injected Dose per Gram of Tissue: Tumor” value is on record as 10.9 ± 0.2 % of injected dose per gram.

B1: ^125 I-RNase-Folate: ^125 I labeled ribonuclease-folate conjugate (conjugate, UniProt P61823 27-150, looked up)
Ribonuclease pancreatic: KETAAAKFERQHMDSSTSAASSSNYCNQMMKSRNLTKDRCKPVNTFVHESLADVQAVCSQKNVACKNGQTNCYQSYSTMSITDCRETGSSKYPNCAYKTTQANKHIIVACEGNPYVPVHFDASV
modifications: 125I label; folate conjugated
In the case of B1, in the series on KB Tumors [2] (1 h), the “Percentage of Injected Dose per Gram: Blood” value (from here on “Percentage … per Gram: Blood”) is 5.34 ± 1.07 % of injected dose per gram, the “Percentage of Injected Dose per Gram: Bone” value (shortened to “Percentage … per Gram: Bone”) was 3.20 ± 0.23 % of injected dose per gram, the “Percentage of Injected Dose per Gram: Heart” value (shortened to “Percentage … per Gram: Heart”) is 2.01 ± 0.22 % of injected dose per gram and the “Percentage of Injected Dose per Gram: Intestines” value (“Percentage … per Gram: Intestines” below) is recorded as 2.03 ± 0.28 % of injected dose per gram. In the series on KB Tumors [2] (1 h), the “Percentage of Injected Dose per Gram: Kidney” value (shortened to “Percentage … per Gram: Kidney”) is listed as 16.08 ± 2.76 % of injected dose per gram, the “Percentage of Injected Dose per Gram: Liver” value (“Percentage … per Gram: Liver” for short) is given as 9.78 ± 1.11 % of injected dose per gram, the “Percentage of Injected Dose per Gram: Lungs” value (shortened to “Percentage … per Gram: Lungs”) is listed as 4.19 ± 0.61 % of injected dose per gram and the “Percentage of Injected Dose per Gram: Muscle” value (“Percentage … per Gram: Muscle” below) is given as 1.73 ± 0.32 % of injected dose per gram. For the same molecule, in the series with KB Tumors [2] (1 h), the “Percentage of Injected Dose per Gram: Spleen” value (shortened to “Percentage … per Gram: Spleen”) was 9.94 ± 1.37 % of injected dose per gram, the “Percentage of Injected Dose per Gram: Stomach” value (“Percentage … per Gram: Stomach” for short) is 21.07 ± 2.57 % of injected dose per gram, the “Percentage of Injected Dose per Gram: Testes” value (“Percentage … per Gram: Testes” for short) was 1.50 ± 0.18 % of injected dose per gram and the “Percentage of Injected Dose per Gram: Tumor” value is given as 5.35 ± 0.54 % of injected dose per gram. Besides, in the series on KB Tumors [2] (60 min), the Tumor/Blood is given as 1.02 ± 0.16 and the Tumor/Muscle turned out to be 3.14 ± 0.43. Also, in the series on KB Tumors [2] (4 h), the “Percentage … per Gram: Blood” value is recorded as 2.30 ± 0.62 % of injected dose per gram, the “Percentage … per Gram: Bone” value was 1.17 ± 0.28 % of injected dose per gram, the “Percentage … per Gram: Heart” value is 0.93 ± 0.39 % of injected dose per gram and the “Percentage … per Gram: Intestines” value is given as 0.95 ± 0.16 % of injected dose per gram. Further, in the series on KB Tumors [2] (4 h), the “Percentage … per Gram: Kidney” value is 5.11 ± 1.27 % of injected dose per gram, the “Percentage … per Gram: Liver” value was 3.29 ± 0.77 % of injected dose per gram, the “Percentage … per Gram: Lungs” value is 1.97 ± 0.77 % of injected dose per gram and the “Percentage … per Gram: Muscle” value is on record as 0.98 ± 0.54 % of injected dose per gram. Moreover, in the series with KB Tumors [2] (4 h), the “Percentage … per Gram: Spleen” value is listed as 2.78 ± 0.73 % of injected dose per gram, the “Percentage … per Gram: Stomach” value was 26.45 ± 8.05 % of injected dose per gram and the “Percentage … per Gram: Testes” value is listed as 1.0 ± 0.15 % of injected dose per gram. For the same molecule, in the series on KB Tumors [2] (1440 min), the Tumor/Blood turned out to be 11.88 ± 3.71 and the Tumor/Muscle amounted to 32.6 ± 6.7. Further, in the series on KB Tumors [2] (24 h), the “Percentage … per Gram: Blood” value was 0.04 ± 0.01 % of injected dose per gram, the “Percentage … per Gram: Bone” value is given as 0.09 ± 0.03 % of injected dose per gram, the “Percentage … per Gram: Heart” value is given as 0.024 ± 0.006 % of injected dose per gram and the “Percentage … per Gram: Intestines” value was 0.05 ± 0.006 % of injected dose per gram. Also, in the series with KB Tumors [2] (24 h), the “Percentage … per Gram: Kidney” value is 0.72 ± 0.07 % of injected dose per gram, the “Percentage … per Gram: Liver” value was 0.38 ± 0.03 % of injected dose per gram, the “Percentage … per Gram: Lungs” value was 0.04 ± 0.01 % of injected dose per gram and the “Percentage … per Gram: Muscle” value is listed as 0.013 ± 0.002 % of injected dose per gram. In the series on KB Tumors [2] (24 h), the “Percentage … per Gram: Spleen” value is 0.23 ± 0.04 % of injected dose per gram, the “Percentage … per Gram: Stomach” value was 0.26 ± 0.14 % of injected dose per gram, the “Percentage … per Gram: Testes” value is listed as 0.021 ± 0.004 % of injected dose per gram and the “Percentage of Injected Dose per Gram: Tumor” value is 0.41 ± 0.02 % of injected dose per gram. In addition, the “Percentage of Injected Dose per Gram: Brain” value (“Percentage … per Gram: Brain” below) in the series with KB Tumors [3] (1 hour after i.v.) is 0.29 ± 0.04 % of injected dose per gram. The “Percentage … per Gram: Brain” value in the series with KB Tumors [3] (4 hours after i.v.) is reported as 0.19 ± 0.14 % of injected dose per gram. In addition, the “Percentage … per Gram: Brain” value in the series on KB Tumors [3] (24 hours after i.v.) is 0.007 ± 0.001 % of injected dose per gram.

B2: ^125 I-RNase: ^125 I labeled ribonuclease (lacking folate), control (protein, UniProt P61823 27-150, looked up)
Ribonuclease pancreatic: KETAAAKFERQHMDSSTSAASSSNYCNQMMKSRNLTKDRCKPVNTFVHESLADVQAVCSQKNVACKNGQTNCYQSYSTMSITDCRETGSSKYPNCAYKTTQANKHIIVACEGNPYVPVHFDASV
modifications: 125I label
With B2, the “Percentage … per Gram: Brain” value with KB Tumors [3] (1 hour after i.v.) is recorded as 0.19 ± 0.06 % of injected dose per gram; in the series on KB Tumors [3] (4 hours after i.v.), 0.06 ± 0.004 % of injected dose per gram; in the series on KB Tumors [3] (24 hours after i.v.) it was 0.0055 ± 0.0006 % of injected dose per gram.

B3: Control SBTI: ^125 I soybean trypsin inhibitor left as an unmodified control (protein, UniProt P01070 25-205, looked up)
Trypsin inhibitor A: DFVLDNEGNPLENGGTYYILSDITAFGGIRAAPTGNERCPLTVVQSRNELDKGIGTIISSPYRIRFIAEGHPLSLKFDSFAVIMLCVGIPTEWSVVEDLPEGPAVKIGENKDAMDGWFRLERVSDDEFNNYKLVFCPQQAEDDKCGDIGISIDHDDGTRRLVVSKNKPLVVQFQKLDKESL
modifications: 125I label
For B3, in series [4], the “Counts per minute/gram wet weight: Brain” value is 0 Counts per minute/gram wet weight, the “Counts per minute/gram wet weight: Heart” value is recorded as 0 Counts per minute/gram wet weight, the “Counts per minute/gram wet weight: Intestine” value was 0 Counts per minute/gram wet weight and the “Counts per minute/gram wet weight: Kidney” value is given as 5152 Counts per minute/gram wet weight. Also, in series [4], the “Counts per minute/gram wet weight: Liver” value is 535 Counts per minute/gram wet weight, the “Counts per minute/gram wet weight: Lung” value was 107 Counts per minute/gram wet weight and the “Counts per minute/gram wet weight: Muscle” value is reported as 0 Counts per minute/gram wet weight.
